Measured values reported in PMC7456326.
pKd: −log10 of the molar value. Like-named read-outs stand apart in the source and are kept apart here. Values belong to the substance of their own block, whether it stands above or below them.

Assays:
[1] = biological target: Coh (lacking ELP linker and ddFLN4 domains), ITC construct (R. champanellensis); experiment: ITC; 126 uM XMod-Doc injected (27 x 10 uL) into 16.1 uM Coh in the cell; 25 °C; TBS-Ca buffer (25 mM Tris, 72 mM NaCl, 1 mM CaCl2, pH 7.2)
[2] = biological target: Coh-ddFLN4-ELP-HIS-ybbr, AFM construct (R. champanellensis); experiment: AFM single-molecule force spectroscopy (AFM-SMFS); Coh construct covalently on the cantilever tip by its C-terminal ybbR tag, XMod-Doc construct covalently on the cover glass by its N-terminal ybbR tag; 200 ms dwell; constant pulling speed 100, 400, 1600, 6400 nm/s (mutants at 400 nm/s); TBS-Ca buffer; k0 from Bell-Evans or Dudko-Hummer-Szabo fits
[3] = biological target: Coh-ddFLN4-ELP-HIS-ybbr, AFM construct (R. champanellensis); experiment: as above; remark: listed apart in the source
[4] = biological target: Avi-Coh (E154C)-HIS labelled with maleimide-Cy3b, smFRET construct (R. champanellensis); experiment: FRET or BRET; single-molecule FRET in solution on a confocal microscope; labelled Coh (Cy3b) and XMod-Doc (AF647) mixed 1:1 at 1 uM, 1 min, diluted to 200 pM; 50 mM Tris pH 8, 100 mM NaCl, 1 mM CaCl2, Trolox, 1% glucose

pKd [1]: 9.00 | stoichiometry N [1]: 1
Substance: XMod-Doc protein (lacking ELP linker and ddFLN4 domains), ITC construct (domain or fragment)

rupture force, pathway 1 (XMod intact) [2]: 500 to 600 pN | k0 (BE), pathway 1, high force rupture (XMod intact) [3]: 4.7e-08 s⁻¹ | k0 (BE), pathway 2, low force rupture after XMod unfold [3]: 0.000743 s⁻¹ | k0 (BE), pathway 3, low force rupture (XMod intact) [3]: 2.79e-05 s⁻¹ | k0 (DHS, υ = 0.5), pathway 1, high force rupture (XMod intact) [3]: 9.39e-05 s⁻¹ | k0 (DHS, υ = 0.5), pathway 2, low force rupture after XMod unfold [3]: 0.0152 s⁻¹ | k0 (DHS, υ = 0.5), pathway 3, low force rupture (XMod intact) [3]: 0.831 s⁻¹ | k0 (DHS, υ = 2/3), pathway 1, high force rupture (XMod intact) [3]: 0.000157 s⁻¹ | k0 (DHS, υ = 2/3), pathway 2, low force rupture after XMod unfold [3]: 0.101 s⁻¹ | k0 (DHS, υ = 2/3), pathway 3, low force rupture (XMod intact) [3]: 1.08 s⁻¹ | percentage of curves in pathway 3 (binding mode B), 400 nm/s [3]: 19% | percentage of curves in pathway 3 (binding mode B), all pulling speeds [3]: 17 to 22% | rupture force, pathway 1 (XMod intact) [3]: 500 pN | rupture force, pathway 2 (after XMod unfolding) [3]: 200 pN | rupture force, pathway 3 (XMod intact) [3]: 200 pN
Substance: ybbr-ELP-ddFLN4-XMod-Doc-HIS (wild type), AFM construct (domain or fragment)

mean FRET efficiency, binding mode A [4]: 0.71 | mean FRET efficiency, binding mode B [4]: 0.34
Substance: ybbr-XMod-Doc (WT, S199AzF)-HIS labelled with DBCO-AF647, smFRET construct (domain or fragment)
